Assay results: PMC4279229 (Molecular Biology of the Cell, 2015)

Target: mouse VASP (wild-type, full-length) (mouse, UniProt P70460 1-375)
Assay: immunolabeling of protein-coated beads

Chain of mouse VASP (wild-type, full-length) (P70460 whole entry): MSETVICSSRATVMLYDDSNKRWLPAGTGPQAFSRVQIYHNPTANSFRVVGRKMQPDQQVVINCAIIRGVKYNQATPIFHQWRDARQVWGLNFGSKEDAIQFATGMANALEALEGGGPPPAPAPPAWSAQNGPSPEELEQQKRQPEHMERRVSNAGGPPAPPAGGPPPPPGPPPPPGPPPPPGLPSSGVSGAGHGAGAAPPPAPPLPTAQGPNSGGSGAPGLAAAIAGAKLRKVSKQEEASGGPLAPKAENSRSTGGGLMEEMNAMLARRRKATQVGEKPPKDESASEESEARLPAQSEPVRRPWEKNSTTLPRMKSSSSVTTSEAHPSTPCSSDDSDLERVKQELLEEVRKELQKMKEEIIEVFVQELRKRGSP

binding result: binds
B1: PRD-VCA-WAVE (PRD-VCA domain of human WAVE-2, Lys195-Asp498) (domain or fragment, UniProt Q9Y6W5 195-498, looked up)
chain: KIKTRKEEWEKMKMGQEFVESKEKLGTSGYPPTLVYQNGSIGCVENVDASSYPPPPQSDSASSPSPSFSEDNLPPPPAEFSYPVDNQRGSGLAGPKRSSVVSPSHPPPAPPLGSPPGPKPGFAPPPAPPPPPPPMIGIPPPPPPVGFGSPGTPPPPSPPSFPPHPDFAAPPPPPPPPAADYPTLPPPPLSQPTGGAPPPPPPPPPPGPPPPPFTGADGQPAIPPPLSDTTKPKSSLPAVSDARSDLLSAIRQGFQLRRVEEQREQEKRDVVGNDVATILSRRIAVEYSDSEDDSSEFDEDDWSD
